Experimental findings from patent US20210063414A1, “METHODS FOR PREVENTING AND/OR TREATING BONE LOSS CONDITIONS BY MODULATING IRISIN” (Dana-Farber Cancer Institute, Inc., priority 2018, published 2021) are described below.

Holding throughout (assay): Crosslinking/co-immunoprecipitation/mass spectrometry (TMT quantitative proteomics) to identify irisin receptors
Format in all cases: binding

The target in assay [1] is T1, MLO-Y4 cell surface proteins (Mus musculus, UniProt P59242).
T1 construct: endogenous in cells; host or cells: MLO-Y4
T1 sequence (P59242 1-1191): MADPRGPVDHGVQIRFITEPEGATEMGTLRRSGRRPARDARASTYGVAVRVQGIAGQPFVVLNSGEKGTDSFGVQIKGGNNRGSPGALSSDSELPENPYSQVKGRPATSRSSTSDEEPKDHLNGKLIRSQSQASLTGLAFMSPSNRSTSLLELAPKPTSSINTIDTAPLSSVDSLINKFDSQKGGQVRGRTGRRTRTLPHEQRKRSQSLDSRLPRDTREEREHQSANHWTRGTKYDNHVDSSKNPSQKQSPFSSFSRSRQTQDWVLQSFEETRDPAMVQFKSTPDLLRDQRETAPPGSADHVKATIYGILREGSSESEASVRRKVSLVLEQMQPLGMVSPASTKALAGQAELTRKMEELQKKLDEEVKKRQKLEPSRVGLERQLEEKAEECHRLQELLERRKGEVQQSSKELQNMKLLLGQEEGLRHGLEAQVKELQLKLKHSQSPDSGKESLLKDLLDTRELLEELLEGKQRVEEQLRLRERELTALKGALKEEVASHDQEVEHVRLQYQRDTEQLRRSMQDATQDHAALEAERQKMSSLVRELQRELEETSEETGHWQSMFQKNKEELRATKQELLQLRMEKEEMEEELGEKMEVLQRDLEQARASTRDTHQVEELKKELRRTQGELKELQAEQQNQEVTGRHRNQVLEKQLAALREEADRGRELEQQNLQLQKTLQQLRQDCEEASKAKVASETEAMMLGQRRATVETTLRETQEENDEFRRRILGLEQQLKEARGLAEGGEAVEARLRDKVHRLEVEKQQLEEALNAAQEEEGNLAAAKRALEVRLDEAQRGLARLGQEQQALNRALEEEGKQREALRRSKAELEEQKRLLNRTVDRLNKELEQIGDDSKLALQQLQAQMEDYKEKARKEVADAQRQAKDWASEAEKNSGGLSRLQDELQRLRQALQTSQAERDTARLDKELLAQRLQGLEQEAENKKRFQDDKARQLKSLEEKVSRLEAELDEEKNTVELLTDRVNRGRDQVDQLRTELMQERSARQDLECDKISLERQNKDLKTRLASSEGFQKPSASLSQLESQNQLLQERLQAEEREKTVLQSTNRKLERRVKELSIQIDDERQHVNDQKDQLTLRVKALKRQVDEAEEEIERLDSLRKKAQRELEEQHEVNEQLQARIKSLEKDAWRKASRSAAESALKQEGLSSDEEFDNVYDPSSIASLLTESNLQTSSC
Conditions: co-precipitated protein Cgn (CING_MOUSE). In outline: (§1)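 Mouse MLO-Y4 cells were switched to serum-free FreeStyle medium for 4 h, chilled, then exposed to 10 nM His-tagged irisin (or adipsin as control) for 20 min. Cells were crosslinked with 1.5 mM DTSSP (30 min, ice), and bound proteins were pulled down on Ni-NTA and eluted with 250 mM imidazole. Eluates were separated by SDS-PAGE, trypsin-digested in gel, TMT 6-plex labelled and quantified by MS3-based LC-MS/MS on an Orbitrap Fusion Lumos.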

Assay [2] concerns the target T2, MLO-Y4 cell surface proteins (Mus musculus, UniProt Q66L42).
T2 construct: endogenous in cells; host or cells: MLO-Y4
The following applies: co-precipitated protein Map3k10 (M3K10_MOUSE). In outline: as §1

Assay [3] has as its target T3, MLO-Y4 cell surface proteins (Mus musculus, UniProt Q8R1I1).
T3 construct: endogenous in cells; host or cells: MLO-Y4
T3 sequence (Q8R1I1 1-64): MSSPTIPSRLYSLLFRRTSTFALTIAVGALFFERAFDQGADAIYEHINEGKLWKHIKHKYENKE
The following applies: co-precipitated protein Uqcr10 (QCR9_MOUSE). In outline:
as §1

T2 sequence (Q66L42 whole entry): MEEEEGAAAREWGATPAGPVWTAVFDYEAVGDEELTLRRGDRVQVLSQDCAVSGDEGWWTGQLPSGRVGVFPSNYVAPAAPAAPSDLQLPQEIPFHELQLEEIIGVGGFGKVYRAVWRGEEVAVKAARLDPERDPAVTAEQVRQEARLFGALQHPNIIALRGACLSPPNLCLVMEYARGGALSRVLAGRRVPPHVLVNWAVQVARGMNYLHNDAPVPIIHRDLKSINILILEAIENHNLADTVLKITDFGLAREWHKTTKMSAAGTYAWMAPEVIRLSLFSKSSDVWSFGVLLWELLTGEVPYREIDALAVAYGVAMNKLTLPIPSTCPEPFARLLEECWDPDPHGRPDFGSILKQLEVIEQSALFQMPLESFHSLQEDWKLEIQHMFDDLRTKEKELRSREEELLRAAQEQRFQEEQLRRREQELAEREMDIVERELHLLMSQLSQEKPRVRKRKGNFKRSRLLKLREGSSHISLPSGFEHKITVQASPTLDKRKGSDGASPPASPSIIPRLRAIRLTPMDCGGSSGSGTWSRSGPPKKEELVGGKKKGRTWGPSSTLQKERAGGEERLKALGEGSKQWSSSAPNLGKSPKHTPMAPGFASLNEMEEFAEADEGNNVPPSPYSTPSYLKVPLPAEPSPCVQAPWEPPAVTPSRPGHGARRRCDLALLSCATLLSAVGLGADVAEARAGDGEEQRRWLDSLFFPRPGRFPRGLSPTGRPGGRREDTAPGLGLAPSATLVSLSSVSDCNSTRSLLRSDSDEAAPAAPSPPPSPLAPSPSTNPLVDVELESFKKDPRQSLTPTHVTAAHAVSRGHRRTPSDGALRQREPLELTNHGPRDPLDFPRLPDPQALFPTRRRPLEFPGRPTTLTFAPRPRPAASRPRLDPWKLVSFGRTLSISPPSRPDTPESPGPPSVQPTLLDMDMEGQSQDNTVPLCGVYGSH

As to adipsin, the TMT signal-to-noise ratio in assay [1] is on record as 200.289; in assay [2], 109.366; in assay [3] it was 243.198.
